Data taken from PMC5988349 (Nature, 2018).

B1: BICDR1 (BICD related-1), as used for the cryo-EM of TDR (natural protein)
chain: MSAFCLGLAGRASAPAEPDSACCMELPAGAGDAVRSPATAAALVSFPGGPGELELALEEELALLAAGERSSEPGEHPQAEPESPVEGHGPPLPPPPTQDPELLSVIRQKEKDLVLAARLGKALLERNQDMSRQYEQMHKELTDKLEHLEQEKHELRRRFENREGEWEGRVSELETDVKQLQDELERQQLHLREADREKTRAVQELSEQNQRLLDQLSRASEVERQLSMQVHALKEDFREKNSSTNQHIIRLESLQAEIKMLSDRKRELEHRLSATLEENDLLQGTVEELQDRVLILERQGHDKDLQLHQSQLELQEVRLSYRQLQGKVEELTEERSLQSSAATSTSLLSEIEQSMEAEELEQEREQLRLQLWEAYCQVRYLCSHLRGNDSADSAVSTDSSMDESSETSSAKDVPAGSLRTALNDLKRLIQSIVDGVEPTVTLLSVEMTALKEERDRLRVTSEDKEPKEQLQKAIRDRDEAIAKKNAVELELAKCKMDMMSLNSQLLDAIQQKLNLSQQLEAWQDDMHRVIDRQLMDTHLKEQSRPAAAAFPRGHGVGRGQEPSTADGKRLFSFFRKI
B2: dynein heavy chain (HC) residues 1-1455 (domain or fragment)
chain: MSEPGGGGGEDGSAGLEVSAVQNVADVSVLQKHLRKLVPLLLEDGGEAPAALEAALEEKSALEQMRKFLSDPQVHTVLVERSTLKEDVGDEGEEEKEFISYNINIDIHYGVKSNSLAFIKRTPVIDADKPVSSQLRVLTLSEDSPYETLHSFISNAVAPFFKSYIRESGKADRDGDKMAPSVEKKIAELEMGLLHLQQNIEIPEISLPIHPMITNVAKQCYERGEKPKVTDFGDKVEDPTFLNQLQSGVNRWIREIQKVTKLDRDPASGTALQEISFWLNLERALYRIQEKRESPEVLLTLDILKHGKRFHATVSFDTDTGLKQALETVNDYNPLMKDFPLNDLLSATELDKIRQALVAIFTHLRKIRNTKYPIQRALRLVEAISRDLSSQLLKVLGTRKLMHVAYEEFEKVMVACFEVFQTWDDEYEKLQVLLRDIVKRKREENLKMVWRINPAHRKLQARLDQMRKFRRQHEQLRAVIVRVLRPQVTAVAQQNQGEVPEPQDMKVAEVLFDAADANAIEEVNLAYENVKEVDGLDVSKEGTEAWEAAMKRYDERIDRVETRITARLRDQLGTAKNANEMFRIFSRFNALFVRPHIRGAIREYQTQLIQRVKDDIESLHDKFKVQYPQSQACKMSHVRDLPPVSGSIIWAKQIDRQLTAYMKRVEDVLGKGWENHVEGQKLKQDGDSFRMKLNTQEIFDDWARKVQQRNLGVSGRIFTIESTRVRGRTGNVLKLKVNFLPEIITLSKEVRNLKWLGFRVPLAIVNKAHQANQLYPFAISLIESVRTYERTCEKVEERNTISLLVAGLKKEVQALIAEGIALVWESYKLDPYVQRLAETVFNFQEKVDDLLIIEEKIDLEVRSLETCMYDHKTFSEILNRVQKAVDDLNLHSYSNLPIWVNKLDMEIERILGVRLQAGLRAWTQVLLGQAEDKAEVDMDTDAPQVSHKPGGEPKIKNVVHELRITNQVIYLNPPIEECRYKLYQEMFAWKMVVLSLPRIQSQRYQVGVHYELTEEEKFYRNALTRMPDGPVALEESYSAVMGIVSEVEQYVKVWLQYQCLWDMQAENIYNRLGEDLNKWQALLVQIRKARGTFDNAETKKEFGPVVIDYGKVQSKVNLKYDSWHKEVLSKFGQMLGSNMTEFHSQISKSRQELEQHSVDTASTSDAVTFITYVQSLKRKIKQFEKQVELYRNGQRLLEKQRFQFPPSWLYIDNIEGEWGAFNDIMRRKDSAIQQQVANLQMKIVQEDRAVESRTTDLLTDWEKTKPVTGNLRPEEALQALTIYEGKFGRLKDDREKCAKAKEALELTDTGLLSGSEERVQVALEELQDLKGVWSELSKVWEQIDQMKEQPWVSVQPRKLRQNLDALLNQLKSFPARLRQYASYEFVQRLLKGYMKINMLVIELKSEALKDRHWKQLMKRLHVNWVVSELTLGQIWDVDLQKNEAIVKDVLLVAQG

Key:
cryo-EM structure = target: the molecule itself; assay: cryo-EM structure
[1] = target: β-actin subunit of pig dynactin (pig (endogenous in pig brain), UniProt Q6QAQ1 1-375); assay: cryo-EM structure

| Binder | binding result (cryo-EM structure) | binding result [1] |
| --- | --- | --- |
| B1 | binds | – |
| B2 | binds | binds |
